For assay [1], the target named is Cry1Ia38 protoxin (Bacillus thuringiensis (strain IE-1)). Put plainly: SEC; Superdex-200 10/300 GL, carbonate buffer (50 mM Na2CO3, 100 mM NaCl) pH 10.5; oligomeric state from the molecular weight of the eluted peaks against standards.
Assay [2] has the same target. The experiment in a line: SDS-PAGE of samples heated at 50 °C, Western blot; control without BBMV: Cry1Ia protein incubated in carbonate buffer pH 10.5 at 37 °C, sample heated at 50 °C for 3 min, 10% SDS-PAGE, polyclonal anti-Cry1Ia.
Assay [3] shares this target. The experiment in a line: SDS-PAGE of samples heated at 50 °C, Western blot; 5 µg Cry1Ia protein incubated with 2 µg O. nubilalis BBMV in 50 µl carbonate buffer pH 10.5 at 37 °C (5-30 min); BBMV pellet heated at 50 °C for 3 min, 10% SDS-PAGE, polyclonal anti-Cry1Ia.
The target in assay [4] is fully MJ activated Cry1Ia toxin (Bacillus thuringiensis (strain IE-1)). The experiment in a line: SEC; Superdex-200 10/300 GL, carbonate buffer (50 mM Na2CO3, 100 mM NaCl) pH 10.5; oligomeric state from the molecular weight of the eluted peaks against standards.
The target of assay [5] is fully trypsin activated Cry1Ia toxin (Bacillus thuringiensis (strain IE-1)). Described as above.
The target in assay [6] is partially processed Cry1Ia protoxin (~67 kDa intermediate fragment) (Bacillus thuringiensis (strain IE-1)). The experiment in a line: SDS-PAGE of samples heated at 50 °C, Western blot; 5 µg Cry1Ia protein incubated with 2 µg O. nubilalis BBMV in 50 µl carbonate buffer pH 10.5 at 37 °C (5-30 min); BBMV pellet heated at 50 °C for 3 min, 10% SDS-PAGE, polyclonal anti-Cry1Ia.

Turning to Cry1Ia38 protoxin (natural protein), the stoichiometry N in assay [1], in assay [2] and in assay [3] was 2 each time.

“fully MJ activated Cry1Ia toxin (domain or fragment)”: in assay [4], the stoichiometry N worked out at 2.

With “fully trypsin activated Cry1Ia toxin (domain or fragment)”, the stoichiometry N in assay [5] was 2.

“partially processed Cry1Ia protoxin (~67 kDa intermediate fragment) (domain or fragment)”: the stoichiometry N in assay [6] is 2.
